In patent US20050085416A1, “Biologically active complex” (priority 2002, published 2005):
Where two headings read alike, the source gives them in different places.

What was measured:
[1] = Ca2+ titration in the presence of chromophoric chelator quin 2; format: binding; conditions: for Ka, calcium association constant: 2 mM Tris/HCl, chelator quin 2; for Kd: read-out: KD, calcium
Source text: To study the Ca^2+ binding equilibrium, the proteins listed in table 1 including the D87A BAMLET obtained as described in Example 7, and HAMLET, was titrated with calcium in the presence of a chromophoric chelator, quin 2, for which the absorbance at 263 nm decreases (approx. 85%) upon Ca^2+-binding. The method relies on competition for calcium between the protein and chelator, and can be used to quantitate high affinity sites (ca. 10^7-5·10^9 M^−1 at low salt, and ca. 5 10^5-1·10^8 M^−1 at 0.15 NaCl) when quin 2 is the chelator. The exact concentration of the chelator solution (in the range of 25-30 μM) was calculated from the absorbance at 239.5 nm in the presence of excess calcium (using ε239.5=4.2×10^4 L mol^−1 cm^−1 for quin 2). Lyophilised protein was dissolved in calcium free (<1 μM Ca^2+) chelator solution at a concentration of 25-30 μM. The absorbance at 263 nm (A263) was recorded for the protein/chelator solution using a UV/Vis 920 spectrophotometer (GBC Scientific Equipment Pty Ltd, Victoria, Australia). Calcium solution (3 mM CaCl2 in 2 mM Tris/HCl, pH 7.5, with or without 0.15 M NaCl) was added in portions of 4 μl. A263 was recorded after each calcium addition.
A more concentrated Ca^2+ stock (10 mM) was used at the end of the titrations of the proteins in 0.15 M NaCl. The data was analysed by least squares fitting directly to the measured quantity, absorbance versus total calcium concentration, using the CaLigator software (Andre and Linse, 2002).

[2] = cited from earlier work
[3] = 20° C.; cited from earlier work

B1: α-lac human: Native human α-lactalbumin purified from human milk (protein, UniProt P00709 20-142, looked up)
Alpha-lactalbumin: KQFTKCELSQLLKDIDGYGGIALPELICTMFHTSGYDTQAIVENNESTEYGLFQISNKLWCKSSQVPQSRNICDISCDKFLDDDITDDIMCAKKILDIKGIDYWLAHKALCTEKLEQWLCEKL
- factor of decrease of Ca2+ affinity between low and physiological ionic strength [1]: 200
- Ka, calcium association constant ([1]; 150 mM NaCl (physiological salt)): 8.3e+06 M⁻¹
- Ka, calcium association constant ([1]; 150 mM NaCl (physiological salt), listed as α-lactalbumin): 8.3e+06 M⁻¹
- Ka, calcium association constant ([1]; low salt (no added salt)): 1.8e+09 M⁻¹
- Ka, calcium association constant ([1]; low salt (no added salt), listed as α-lactalbumin): 1.8e+09 M⁻¹
- Kd ([1]; low salt): 0.56 nM
- Kd ([1]; physiological salt, 0.15 M NaCl): 120 nM
- Ka ([2]; 5 mM Tris, 0.1 mM EDTA, pH 7.2, 298 K, CD 270 nm): 3e+08 M⁻¹
- Ka ([2]; H2O, 100 mM KCl, pH 7, 294 K, EDTA, 43Ca-NMR): 2e+07 M⁻¹
- Ka for Na+ [3]: 100 M⁻¹
